Measurements reported in patent US20160228506A1, “Compositions and Formulations for Prevention and Reduction of Tumorigenesis, Cancer Cell Proliferation and Invasion, and Methods of Production and Use Thereof in Cancer Treatment” (PRONUTRIA, INC., priority 2013, published 2016).
Changes are numbered by the printed parent chain. Names may count otherwise.

B1: SEQID-00672 (BS): nutritive polypeptide (protein, listed as Saccharomyces cerevisiae)
chain: MSSSESIRMVLIGPPGAGKGTQAPNLQERFHAAHLATGDMLRSQIAKGTQLGLEAKKIMDQGGLVSDDIMVNMIKDELTNNPACKNGFILDGFPRTIPQAEKLDQMLKEQGTPLEKAIELKVDDELLVARITGRLIHPASGRSYHKIFNPPKEDMKDDVTGEALVQRSDDNADALKKRLAAYHAQTEPIVDFYKKTGIWAGVDASQPPATVWADILNKLGKD
modifications: source: /note="strain ATCC 204508 / S288c"
B2: SEQID-00678 (BS): nutritive polypeptide (protein, listed as Saccharomyces cerevisiae)
chain: B1 chain with R42K
modifications: source: /note="strain ATCC 204508 / S288c"
B3: SEQID-00363 (E. coli): SEQID-00363 expressed recombinantly in E. coli (protein)
chain: ATLDSWLSNEATVARTAILNNIGADGAWVSGADSGIVVASPSTDNPDYFYTWTRDSGLVLKTLVDLFRNGDTSLLSTIENYISAQAIVQGISNPSGDLSSGAGLGEPKFNVDETAYTGSWGRPQRDGPALRATAMIGFGQWLLDNGYTSTATDIVWPLVRNDLSYVAQYWNQTGYDLWEEVNGSSFFTIAVQHRALVEGSAFATAVGSSCSWCDSQAPEILCYLQSFWTGSFILANFDSSRSGKDANTLLGSIHTFDPEAACDDSTFQPCSPRALANHKEVVDSFRSIYTLNDGLSDSEAVAVGRYPEDTYYNGNPWFLCTLAAAEQLYDALYQWDKQGSLEVTDVSLDFFKALYSDAATGTYSSSSSTYSSIVDAVKTFADGFVSIVETHAASNGSMSEQYDKSDGEQLSARDLTWSYAALLTANNRRNSVVPASWGETSASSVPGTCAATSAIGTYSSVTVTSWPSIVATGGTTTTATPTGSGSVTSTSKTTATASKTSTSTSSTSCTTPTAVAVTFDLTATTTYGENIYLVGSISQLGDWETSDGIALSADKYTSSDPLWYVTVTLPAGESFEYKFIRIESDDSVEWESDPNREYTVPQACGTSTATVTDTWR
modifications: Aspergillus niger
B4: SEQID-00407 (BS): α-amylase in Bacillus subtilis; Wild-type of Tables E37A and E38E (protein, listed as Bacillus subtilis)
chain: ETANKSNELTAPSIKSGTILHAWNWSFNTLKHNMKDIHDAGYTAIQTSPINQVKEGNQGDKSMSNWYWLYQPTSYQIGNRYLGTEQEFKEMCAAAEEYGIKVIVDAVINHTTSDYAAISNEVKSIPNWTHGNTQIKNWSDRWDVTQNSLLGLYDWNTQNTQVQSYLKRFLDRALNDGADGFRFDAAKHIELPDDGSYGSQFWPNITNTSAEFQYGEILQDSASRDAAYANYMDVTASNYGHSIRSALKNRNLGVSNISHYASDVSADKLVTWVESHDTYANDDEESTWMSDDDIRLGWAVIASRSGSTPLFFSRPEGGGNGVRFPGKSQIGDRGSALFEDQAITAVNRFHNVMAGQPEELSNPNGNNQIFMNQRGSHGVVLANAGSSSVSINTATKLPDGRYDNKAGAGSFQVNDGKLTGTINARSVAVLYPDDIAKAPHVFLENYKTGVTHSFNDQLTITLRADANTTKAVYQINNGPETAFKDGDQFTIGKGDPFGKTYTIMLKGTNSDGVTRTEKYSFVKRDPASAKTIGYQNPNHWSQVNAYIYKHDGSRVIELTGSWPGKPMTKNADGIYTLTLPADTDTTNAKVIFNNGSAQVPGQNQPGFDYVLNGLYNDSGLSGSLPH
modifications: source: /note="strain 168"
B5: SEQID-00359: nutritive polypeptide naturally produced in Sheep, recombinantly expressed in E. coli (protein)
chain: MLELGSQRNRAKNNHIGDLMSQSFESLGISEQRARHLETLGFTEPTPVQIQAIPEMLSGRDVVGMAQTGTGKTAAFSLPILEQIDVHAAGIQALVLTPTRELAMQVKEAIRTFSDDNALYVLTVYGGQSIDRQIQRLRRGVQVVVGTPGRILDLLNRGELKLDLLRWLVLDEADEMLSMGFIQDVEKILESADSEHRQTAFFSATMDASISKLVRRHLKSPVTVKVETPKATPKRIEQSVYMVPRGWSKARALEPILELEDPESAIIFVRTKQSAADLTNQLQAAGHSVDEYHGNLNQSQRERLLMRLRRRQVRWIVATDIAARGLDVDHLTHVINYDLPDQVDSYVHRIGRTGRAGREGKAITLIQPIDRRKLRNIERHLRQTLSIQSIPKRAEIEARYIDRLKDRVRDALAGERMASFLPIVSQLSEEYDPHAIAAAALQLAYDQTRPASIGRDDYEDDDDAVSNKPKLIKRRRPASVSNNS
modifications: Arthrospira platensis NIES-39
B6: SEQID-00420: nutritive polypeptide (protein)
chain: AAAPLEKRSCTFTSASAAKSGKSSCSTITLDNIAVPAGETLDLTGLKKGTTVIFEGETTFGYKEWKGPLISMSGTDITVKQASGAKINCDGARWWDGKGSNGGKTKPKFFQAHKLDQSSITGLKVYNTPVQGFSILADHLTITDVTIDNSAGTSKGHNTDAFDIGQSTYITIDGATVYNQDDCLAINSGEHITFTNGYCDGGHGLSIGSIGGRSDNTVNDVTISNSKVLNSQNGVRIKTIYGKTGTVENVKFEDITLSDISKYGIVVEQDYENGSPTGTPTNGVKVEDITFKKVTGSVKSSGTDIYILCGSGSCSNWTWSGVDVTGGKKSSKCKNVPSGASCSD
modifications: Aspergillus niger; source: /note="strain CBS 513.88 / FGSC A1513"
B7: SEQID-00418: nutritive polypeptide (protein)
chain: VPRVRRQGASSSFDYKSQIVRGVNLGGWLVTEPWITPSLYDSTGGGAVDEWTLCQILGKDEAQAKLSSHWSSFITQSDFDRMAQAGLNHVRIPIGYWAVAPIDGEPYVSGQIDYLDQAVTWARAAGLKVLVDLHGAPGSQNGFDNSGHRGPIQWQQGDTVNQTMTAFDALARRYAQSDTVTAIEAVNEPNIPGGVNEDGLKNYYYGALADVQRLNPSTTLFMSDGFQPVESWNGFMQGSNVVMDTHHYQVFDTGLLSMSIDDHVKTACSLATQHTMQSDKPVVVGEWTGALTDCAKYLNGVGNAARYDGTYMSTTKYGDCTGKSTGSVADFSADEKANTRRYIEAQLEAYEMKSGWLFWTWKTEGAPGWDMQDLLANQLFPTSPTDRQYPHQCS
modifications: Aspergillus niger; source: /note="strain CBS 513.88 / FGSC A1513"
B8: SEQID-00418 (E. coli): nutritive polypeptide (protein)
chain: B7 chain
modifications: Aspergillus niger; source: /note="strain CBS 513.88 / FGSC A1513"
B9: SEQID-00001 (HEK293): nutritive polypeptide (protein, listed as Gallus gallus)
chain: MGSIGAASMEFCFDVFKELKVHHANENIFYCPIAIMSALAMVYLGAKDSTRTQINKVVRFDKLPGFGDSIEAQCGTSVNVHSSLRDILNQITKPNDVYSFSLASRLYAEERYPILPEYLQCVKELYRGGLEPINFQTAADQARELINSWVESQTNGIIRNVLQPSSVDSQTAMVLVNAIVFKGLWEKAFKDEDTQAMPFRVTEQESKPVQMMYQIGLFRVASMASEKMKILELPFASGTMSMLVLLPDEVSGLEQLESIINFEKLTEWTSSNVMEERKIKVYLPRMKMEEKYNLTSVLMAMGITDVFSSSANLSGISSAESLKISQAVHAAHAEINEAGREVVGSAEAGVDAASVSEEFRADHPFLFCIKHIATNAVLFFGRCVSP
modifications: expressed in HEK293

Assay: Intact half-life during simulated gastric fluid (SGF) digestion
Details: SGF pH 1.5, pepsin:polypeptide 1:20 w/w, 37° C.; intact protein

Molecule | SGF Half-life (t½) [s]
B1 | 18
B2 | 12
B3 | <600
B4 | 12
B5 | 12
B6 | 72
B7 | 12
B8 | 30
B9 | 516
